The supplement of paper PMC11246515
± gives the standard deviation of the averaged measurements.

Experiment: total protein half-life in vivo (active degradation + dilution); higher = more stable protein
[1] = E. coli NCM3722 delta-clpP delta-lon delta-hslV, growth: N-lim chemostat, doubling time 6 h
[2] = E. coli NCM3722 delta-clpP, growth: N-lim chemostat, doubling time 6 h
[3] = E. coli NCM3722 delta-hslV, growth: N-lim chemostat, doubling time 6 h
[4] = E. coli NCM3722 delta-lon, growth: N-lim chemostat, doubling time 6 h
[5] = E. coli NCM3722 delta-smpB, growth: N-lim chemostat, doubling time 6 h
[6] = wild type E. coli NCM3722, growth: C-lim chemostat, doubling time 3 h
[7] = wild type E. coli NCM3722, growth: C-lim chemostat, doubling time 6 h
[8] = wild type E. coli NCM3722, growth: C-lim chemostat, doubling time 12 h
[9] = wild type E. coli NCM3722, growth: N-lim chemostat, doubling time 6 h
[10] = wild type E. coli NCM3722, growth: N-lim chemostat, doubling time 12 h
[11] = wild type E. coli NCM3722, growth: P-lim chemostat, doubling time 6 h
[12] = wild type E. coli NCM3722, growth: P-lim chemostat, doubling time 12 h

MIDFGNFYSLIAKNHLSHWLETLPAQIANWQREQQHGLFKQWSNAVEFLPEIKPYRLDLLHSVTAESEEPLSAGQIKRIETLMRNLMPWRKGPFSLYGVNIDTEWRSDWKWDRVLPHLSDLTGRTILDVGCGSGYHMWRMIGAGAHLAVGIDPTQLFLCQFEAVRKLLGNDQRAHLLPLGIEQLPALKAFDTVFSMGVLYHRRSPLEHLWQLKDQLVNEGELVLETLVIDGDENTVLVPGDRYAQMRNVYFIPSALALKNWLKKCGFVDIRIADVSVTTTEEQRRTEWMVTESLADFLDPHDPGKTVEGYPAPKRAVLIARKP
total protein half-life in vivo [1]: 5.27 ± 0.08 h
total protein half-life in vivo [2]: 4.888 ± 0.034 h
total protein half-life in vivo [3]: 5.33 ± 0.13 h
total protein half-life in vivo [4]: 5.97 ± 1.3 h
total protein half-life in vivo [5]: 5.36 ± 0.11 h
total protein half-life in vivo [6]: 3.11 ± 0.086 h
total protein half-life in vivo [7]: 5.84 ± 0.0082 h
total protein half-life in vivo [8]: 13.1 ± 3.1 h
total protein half-life in vivo [9]: 5.59 h
total protein half-life in vivo [10]: 11.6 ± 2.1 h
total protein half-life in vivo [11]: 5.89 ± 0.94 h
total protein half-life in vivo [12]: 12.3 ± 0.86 h

MIDKSAFVHPTAIVEEGASIGANAHIGPFCIVGPHVEIGEGTVLKSHVVVNGHTKIGRDNEIYQFASIGEVNQDLKYAGEPTRVEIGDRNRIRESVTIHRGTVQGGGLTKVGSDNLLMINAHIAHDCTVGNRCILANNATLAGHVSVDDFAIIGGMTAVHQFCIIGAHVMVGGCSGVAQDVPPYVIAQGNHATPFGVNIEGLKRRGFSREAITAIRNAYKLIYRSGKTLDEVKPEIAELAETYPEVKAFTDFFARSTRGLIR [P0A722]
total protein half-life in vivo [1]: 5.73 ± 0.15 h
total protein half-life in vivo [2]: 5.26 ± 0.2 h
total protein half-life in vivo [3]: 5.49 ± 0.17 h
total protein half-life in vivo [4]: 5.48 ± 0.32 h
total protein half-life in vivo [5]: 5.59 ± 0.7 h
total protein half-life in vivo [6]: 3.06 ± 0.068 h
total protein half-life in vivo [7]: 5.79 ± 0.17 h
total protein half-life in vivo [8]: 10.9 ± 0.052 h
total protein half-life in vivo [9]: 5.52 ± 0.27 h
total protein half-life in vivo [10]: 10.4 ± 0.94 h
total protein half-life in vivo [11]: 5.95 ± 0.41 h
total protein half-life in vivo [12]: 12.5 ± 0.48 h

MIDLRSDTVTRPSRAMLEAMMAAPVGDDVYGDDPTVNALQDYAAELSGKEAAIFLPTGTQANLVALLSHCERGEEYIVGQAAHNYLFEAGGAAVLGSIQPQPIDAAADGTLPLDKVAMKIKPDDIHFARTKLLSLENTHNGKVLPREYLKEAWEFTRERNLALHVDGARIFNAVVAYGCELKEITQYCDSFTICLSKGLGTPVGSLLVGNRDYIKRAIRWRKMTGGGMRQSGILAAAGIYALKNNVARLQEDHDNAAWMAEQLREAGADVMRQDTNMLFVRVGEENAAALGEYMKARNVLINASPIVRLVTHLDVSREQLAEVAAHWRAFLAR
total protein half-life in vivo [1]: 5.25 ± 0.99 h
total protein half-life in vivo [3]: 4.88 ± 0.86 h
total protein half-life in vivo [4]: 5.53 ± 0.73 h
total protein half-life in vivo [5]: 4.18 ± 0.28 h
total protein half-life in vivo [6]: 3.162 ± 0.023 h
total protein half-life in vivo [7]: 5.88 ± 0.24 h
total protein half-life in vivo [8]: 10.8 ± 0.43 h
total protein half-life in vivo [9]: 4.39 ± 0.4 h
total protein half-life in vivo [10]: 6.44 ± 0.27 h
total protein half-life in vivo [11]: 5.87 ± 0.12 h
total protein half-life in vivo [12]: 11.2 ± 1.5 h

MIDYTAAGFTLLQGAHLYAPEDRGICDVLVANGKIIAVASNIPSDIVPNCTVVDLSGQILCPGFIDQHVHLIGGGGEAGPTTRTPEVALSRLTEAGVTSVVGLLGTDSISRHPESLLAKTRALNEEGISAWMLTGAYHVPSRTITGSVEKDVAIIDRVIGVKCAISDHRSAAPDVYHLANMAAESRVGGLLGGKPGVTVFHMGDSKKALQPIYDLLENCDVPISKLLPTHVNRNVPLFEQALEFARKGGTIDITSSIDEPVAPAEGIARAVQAGIPLARVTLSSDGNGSQPFFDDEGNLTHIGVAGFETLLETVQVLVKDYDFSISDALRPLTSSVAGFLNLTGKGEILPGNDADLLVMTPELRIEQVYARGKLMVKDGKACVKGTFETA
total protein half-life in vivo [1]: 6.21 ± 0.27 h
total protein half-life in vivo [2]: 5.9 ± 0.13 h
total protein half-life in vivo [3]: 5.497 ± 0.0056 h
total protein half-life in vivo [4]: 5.68 ± 0.064 h
total protein half-life in vivo [5]: 5.3 ± 0.21 h
total protein half-life in vivo [6]: 2.93 ± 0.1 h
total protein half-life in vivo [7]: 5.97 ± 0.45 h
total protein half-life in vivo [8]: 12.8 ± 0.66 h
total protein half-life in vivo [9]: 5.29 ± 0.25 h
total protein half-life in vivo [10]: 9.01 ± 0.33 h
total protein half-life in vivo [11]: 6.11 ± 0.39 h
total protein half-life in vivo [12]: 13.1 ± 0.29 h

MIEFVYPHTQLVAGVDEVGRGPLVGAVVTAAVILDPARPIAGLNDSKKLSEKRRLALYEEIKEKALSWSLGRAEPHEIDELNILHATMLAMQRAVAGLHIAPEYVLIDGNRCPKLPMPAMAVVKGDSRVPEISAASILAKVTRDAEMAALDIVFPQYGFAQHKGYPTAFHLEKLAEHGATEHHRRSFGPVKRALGLAS
total protein half-life in vivo [2]: 1.93 h
total protein half-life in vivo [3]: 1.11 h
total protein half-life in vivo [4]: 2.38 ± 0.2 h
total protein half-life in vivo [5]: 1.39 ± 0.024 h
total protein half-life in vivo [6]: 1.7 ± 0.042 h
total protein half-life in vivo [7]: 2.67 ± 0.43 h
total protein half-life in vivo [8]: 3.19 h
total protein half-life in vivo [9]: 1.19 h
total protein half-life in vivo [10]: 1.91 h
total protein half-life in vivo [11]: 1.43 h
total protein half-life in vivo [12]: 2.12 ± 0.71 h

MIEILHEYWKPLLWTDGYRFTGVAITLWLLILSVVIGGVLALFLAIGRVSSNKYIQFPIWLFTYIFRGTPLYVQLLVFYSGMYTLEIVKGTEFLNAFFRSGLNCTVLALTLNTCAYTTEIFAGAIRSVPHGEIEAARAYGFSTFKMYRCIILPSALRIALPAYSNEVILMLHSTALAFTATVPDLLKIARDINAATYQPFTAFGIAAVLYLIISYVLISLFRRAEKRWLQHVKPSSTH [P0AEU3]
total protein half-life in vivo [1]: > 8 h
total protein half-life in vivo [2]: 6.1106 ± 0.00052 h
total protein half-life in vivo [3]: 6.07 h
total protein half-life in vivo [4]: 6.71 ± 0.91 h
total protein half-life in vivo [5]: 7.16 ± 0.54 h
total protein half-life in vivo [6]: > 4 h
total protein half-life in vivo [7]: 5.71 ± 0.54 h
total protein half-life in vivo [8]: 11.3 ± 1.3 h
total protein half-life in vivo [9]: 6.75 ± 0.49 h
total protein half-life in vivo [10]: 11 ± 3.6 h
total protein half-life in vivo [11]: 6.32 h
total protein half-life in vivo [12]: 11.92 ± 0.04 h
